According to patent US20130183348A1, “Inhibitor of HMGB Protein-Mediated Immune Response Activation, and Screening Method” (JAPAN SCIENCE AND TECHNOLOGY AGENCY, published 2013):
Values belong to the binder of their own block, whether it stands above or below them.

Assays:
HMGB1 [1] = biological target: T1, HMGB1 (Mus musculus, UniProt P63158 SEQ:1-215); assay: pulldown; CpG-B ODN competing biotin-B-DNA; recombinant HMGB1 or 2 used, protein of this panel not specified; conditions: tags: GST-tagged, tag removed with thrombin (pGEX4T3)
Procedure: (§1) In vitro pull-down assay was carried out as follows. At first, a recombinant of HMGB1, 2, or 3 was treated in the presence or absence of a competitor at room temperature for 30 minutes. The supernatant was mixed with a biotin-labeled B-DNA at 4° C. for 30 minutes, then streptavidin-bound magnetic beads (Invitrogen Corporation) were added thereto, and the mixture was incubated in a binding buffer (50 mM Tris-Cl, pH 7.5, 150 mM NaCl, 1 mM EDTA, 1% NP-40, 100 μg/mL leupeptin, 1 mM PMSF, 1 mM Na₃VO₄). Subsequently, the mixture was sufficiently washed with a binding buffer, was separated by SDS-PAGE, and then was immunoblotted using an anti-HMGB1, 2, or 3 antibody.
Binding of HMGB to DNA, RNA and base-free phosphorothioate deoxyribose homopolymer (PS) was investigated. In vitro pull-down assay using recombinant HMGB1 or 2 and biotin-bound B-DNA was performed in the presence of 1, 3, 10, 30 and 100 μg/mL of unlabeled nucleic acid (B-DNA, poly(I:C), poly(U), bovine thymus DNA, or microbial DNA), R837 (1, 3, 10, 30 and 100 μg/mL) (upper and middle panels), base-free natural deoxyribose homopolymer (PD: 0.01, 0.1, 0.3, 1 and 3 μg/mL, lower panel), or base-free phosphorothioate deoxyribose homopolymer (PS: 0.01, 0.1, 0.3, 1 and 3 μg/mL, lower panel). In the lower panel, unlabeled B-DNA or CpG-B ODN having stepwise increasing concentrations (0.1, 0.3, 1 and 3 μg/mL) was also used. […]

HMGB1 [2] = biological target: T1, HMGB1; assay: pulldown; biotin-CpG-B(S) 0.2 uM pulled down HMGB1; also completely inhibited B-DNA binding; conditions: tags: GST-tagged, tag removed with thrombin (pGEX4T3)
Procedure: (§2) In more detail, a final concentration of 0, 0.1, 0.5, 2.5, 12.5, or 62.5 μg/mL of CpG-B(S) as a competitor was added to 2 μg of a recombinant HMGB1 protein and a final concentration of 2.5 μg/mL of biotin-labeled B-DNA, and they were incubated (room temperature, 30 minutes). The biotin-labeled B-DNA was pulled down with streptavidin-bound magnetic beads, and HMGB1 in the coprecipitated protein was detected by Western blotting using an anti-HMGB1 antibody. In addition, a final concentration of 0, 1, 2, 4, 8, 16, or 32 μM of a competitor: CpG-B(S) not labeled with biotin, CpG-M(S), ODN(PS) composed of only a phosphorothioate backbone and not having any base, or ODN(CpG-M) having the same sequence as that of CpG-M(S) and a phosphodiester backbone, was added to 2 μg of the recombinant HMGB1 protein and a final concentration of 0.2 μM of biotin-labeled CpG-B(S). The biotin-labeled CpG-B was pulled down with streptavidin-bound magnetic beads, and HMGB1 in the coprecipitated protein was detected by Western blotting using an anti-HMGB1 antibody.

HMGB1 [3] = biological target: T1, HMGB1; assay: competition; competes biotin-B-DNA; higher competitivity than PS; conditions: tags: GST-tagged, tag removed with thrombin (pGEX4T3)
Procedure: as §1
As in Example 13, in vitro pull-down assay using recombinant HMGB1 and biotin-bound B-DNA was performed for 0.1, 0.5, 2.5, 12.5 and 62.5 μg/mL of CpG-B(S), CpG-Rev(S), CpG-M(S) and PS, as competitors.

[4] = biological target: T2, CFP-tagged RIG-I (CFP-RIG-I) (mouse, UniProt Q6Q899 1-926); assay: confocal fluorescence microscopy of HeLa cells cotransfected with CFP-RIG-I and YFP-HMGB1 and stimulated with poly(I:C); the filing's interpretation of co-localisation
T2 construct: Expressed in HeLa cells from the pCAGGS-CFP vector; not shown: CFP tag from the pCAGGS-CFP vector
T2 sequence (looked up): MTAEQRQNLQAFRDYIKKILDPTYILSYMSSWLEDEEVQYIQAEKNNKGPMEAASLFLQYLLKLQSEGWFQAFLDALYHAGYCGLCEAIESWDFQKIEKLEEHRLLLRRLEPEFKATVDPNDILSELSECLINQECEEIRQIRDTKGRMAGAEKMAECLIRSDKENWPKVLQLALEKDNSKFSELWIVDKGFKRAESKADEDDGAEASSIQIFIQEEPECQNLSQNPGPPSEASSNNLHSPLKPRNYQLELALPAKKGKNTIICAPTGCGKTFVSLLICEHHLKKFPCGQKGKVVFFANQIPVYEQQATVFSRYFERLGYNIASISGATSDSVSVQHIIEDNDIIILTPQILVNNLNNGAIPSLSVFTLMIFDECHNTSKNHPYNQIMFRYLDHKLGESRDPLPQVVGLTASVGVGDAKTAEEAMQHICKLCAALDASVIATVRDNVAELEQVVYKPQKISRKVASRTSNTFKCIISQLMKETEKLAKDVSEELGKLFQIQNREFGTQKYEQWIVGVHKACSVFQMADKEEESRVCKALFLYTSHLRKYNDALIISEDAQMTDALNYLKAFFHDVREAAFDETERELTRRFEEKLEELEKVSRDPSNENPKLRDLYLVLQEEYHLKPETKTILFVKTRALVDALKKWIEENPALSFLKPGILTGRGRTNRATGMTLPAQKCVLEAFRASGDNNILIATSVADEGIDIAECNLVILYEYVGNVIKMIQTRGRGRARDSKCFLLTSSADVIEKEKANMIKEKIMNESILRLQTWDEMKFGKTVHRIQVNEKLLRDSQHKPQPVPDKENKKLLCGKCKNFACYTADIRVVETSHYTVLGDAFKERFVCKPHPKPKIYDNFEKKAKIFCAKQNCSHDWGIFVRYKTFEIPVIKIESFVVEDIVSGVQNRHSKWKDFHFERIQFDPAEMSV
Procedure: Intracellular localization of HMGB1 and RIG-I was investigated. Expression vectors of CFP-tagged RIG-I (CFP-RIG-I) and YFP-tagged HMGB1 (YFP-HMGB1) were introduced, together with RFP-tagged Rab5 (RFP-Rab5) or without RFP-Rab5, into HeLa cells. At 16 hours after the gene transfer, the cells were stimulated with poly(I:C) for 2 hours, and fluorescence microscopic observation was performed using a laser scanning confocal microscope.

HMGB1 [5] = biological target: T1, HMGB1; assay: competition; competes biotin-CpG-B(S) equally to unlabeled CpG-B(S); higher competitivity than PS; conditions: tags: GST-tagged, tag removed with thrombin (pGEX4T3)
Procedure: as §2

B1: CpG-B(S) (ssDNA)
DNA: TCCATGACGTTCCTGATGCT
modifications: PS all linkages
binding result (HMGB1 [1]): binds
binding result (HMGB1 [2]): binds

B2: CpG-Rev(S) (ssDNA)
DNA: TCCATGAGCTTCCTGATGCT
modifications: PS all linkages
binding result (HMGB1 [3]): binds

binding result [4]: binds
B3: YFP-tagged HMGB1 (YFP-HMGB1) (other, mouse, UniProt P63158 1-215, looked up)
chain: MGKGDPKKPRGKMSSYAFFVQTCREEHKKKHPDASVNFSEFSKKCSERWKTMSAKEKGKFEDMAKADKARYEREMKTYIPPKGETKKKFKDPNAPKRPPSAFFLFCSEYRPKIKGEHPGLSIGDVAKKLGEMWNNTAADDKQPYEKKAAKLKEKYEKDIAAYRAKGKPDAAKKGVVKAEKSKKKKEEEDDEEDEEDEEEEEEEEDEDEEEDDDDE
notes: Expressed in HeLa cells from the pCAGGS-YFP vector; not shown: YFP tag from the pCAGGS-YFP vector

B4: CpG-M(S) (ssDNA)
DNA: TCCATGAGGTTCCTGATGCT
modifications: PS all linkages
binding result (HMGB1 [5]): binds
